Earlier results as cited in article PMC3433420.
Read-outs that look alike come from different tables or passages of the source.

What was measured:
Conditions in all cases: cited from earlier work
PIK3R3-NC (Homo sapiens) [1] = target: PIK3R3-NC (Homo sapiens) (UniProt Q92569)
RASA1-N (Homo sapiens) [2] = target: RASA1-N (Homo sapiens) (UniProt P20936)
PIK3R1-N (Homo sapiens) [3] = target: PIK3R1-N (Homo sapiens) (UniProt P27986)
PIK3R1-NC (Homo sapiens) [4] = target: PIK3R1-NC (Homo sapiens) (UniProt P27986)
Chain of PIK3R1-NC (Homo sapiens) (P27986 328-723): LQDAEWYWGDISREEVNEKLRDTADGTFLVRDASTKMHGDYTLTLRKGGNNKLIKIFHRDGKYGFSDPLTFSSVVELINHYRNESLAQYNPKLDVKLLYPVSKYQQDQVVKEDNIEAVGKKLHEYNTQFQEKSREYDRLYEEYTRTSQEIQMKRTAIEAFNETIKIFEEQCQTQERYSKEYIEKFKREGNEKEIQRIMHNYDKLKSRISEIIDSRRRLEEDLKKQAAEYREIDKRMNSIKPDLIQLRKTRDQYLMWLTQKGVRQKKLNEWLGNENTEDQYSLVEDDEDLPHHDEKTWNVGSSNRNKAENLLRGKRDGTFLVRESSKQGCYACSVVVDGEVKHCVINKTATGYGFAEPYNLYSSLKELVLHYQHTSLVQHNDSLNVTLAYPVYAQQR

GRB7 (Homo sapiens) [5] = target: GRB7 (Homo sapiens) (UniProt Q14451)
Chain of GRB7 (Homo sapiens) (Q14451 426-532): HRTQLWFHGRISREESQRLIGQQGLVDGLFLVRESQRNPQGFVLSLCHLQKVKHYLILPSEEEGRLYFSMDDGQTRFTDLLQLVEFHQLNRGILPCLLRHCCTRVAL

SYK-NC (Homo sapiens) [6] = target: SYK-NC (Homo sapiens) (UniProt P43405)
GRB7 (Homo sapiens) [7] = target: GRB7 (Homo sapiens) (UniProt Q14451); remark: listed apart in the source
PIK3R2-NC (Homo sapiens) [8] = target: PIK3R2-NC (Homo sapiens) (UniProt O00459)
Chain of PIK3R2-NC (Homo sapiens) (O00459 325-721): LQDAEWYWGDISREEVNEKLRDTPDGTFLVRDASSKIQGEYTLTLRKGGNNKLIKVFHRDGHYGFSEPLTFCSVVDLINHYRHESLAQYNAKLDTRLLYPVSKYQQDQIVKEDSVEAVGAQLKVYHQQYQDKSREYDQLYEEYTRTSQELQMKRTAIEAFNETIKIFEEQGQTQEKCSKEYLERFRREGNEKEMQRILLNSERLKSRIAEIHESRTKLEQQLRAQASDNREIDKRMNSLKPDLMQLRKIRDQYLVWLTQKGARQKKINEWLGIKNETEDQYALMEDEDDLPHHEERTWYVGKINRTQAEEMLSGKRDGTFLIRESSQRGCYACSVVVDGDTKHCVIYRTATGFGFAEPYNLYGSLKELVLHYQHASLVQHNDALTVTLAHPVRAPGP

PIK3R1-N (Homo sapiens) [9] = target: PIK3R1-N (Homo sapiens) (UniProt P27986); remark: listed apart in the source
RASA1-N (Homo sapiens) [10] = target: RASA1-N (Homo sapiens) (UniProt P20936); remark: listed apart in the source
BLK (Homo sapiens) = BLK (Homo sapiens) (UniProt P51451)
Chain of BLK (Homo sapiens) (P51451 119-225): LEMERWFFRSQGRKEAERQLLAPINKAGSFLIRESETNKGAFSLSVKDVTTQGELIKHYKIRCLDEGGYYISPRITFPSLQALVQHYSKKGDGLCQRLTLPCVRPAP

PIK3R1-NC (Homo sapiens) [11] = target: PIK3R1-NC (Homo sapiens) (UniProt P27986); remark: listed apart in the source
PIK3R3-N (Homo sapiens) [12] = target: PIK3R3-N (Homo sapiens) (UniProt Q92569)
SYK-NC (Homo sapiens) [13] = target: SYK-NC (Homo sapiens) (UniProt P43405); remark: listed apart in the source
ABL2 (Homo sapiens) [14] = target: ABL2 (Homo sapiens) (UniProt P42684)
Chain of ABL2 (Homo sapiens) (P42684 168-268): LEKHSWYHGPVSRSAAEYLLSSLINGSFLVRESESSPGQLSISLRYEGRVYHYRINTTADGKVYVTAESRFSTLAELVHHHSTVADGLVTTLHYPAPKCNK

FGR (Homo sapiens) = FGR (Homo sapiens) (UniProt P09769)
PIK3R2-N (Homo sapiens) [15] = target: PIK3R2-N (Homo sapiens) (UniProt O00459)
Chain of PIK3R2-N (Homo sapiens) (O00459 325-721): as the sequence (O00459 325-721) above

PIK3R3-NC (Homo sapiens) [16] = target: PIK3R3-NC (Homo sapiens) (UniProt Q92569); remark: listed apart in the source
ABL1 (Homo sapiens) = ABL1 (Homo sapiens) (UniProt P00519)
Chain of ABL1 (Homo sapiens) (P00519 122-222): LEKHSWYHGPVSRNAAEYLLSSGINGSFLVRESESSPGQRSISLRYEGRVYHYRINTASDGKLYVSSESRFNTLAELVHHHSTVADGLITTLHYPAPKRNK

PIK3R2-NC (Homo sapiens) [17] = target: PIK3R2-NC (Homo sapiens) (UniProt O00459); remark: listed apart in the source
SRC (Homo sapiens) = SRC (Homo sapiens) (UniProt P12931)
PLCG2-NC (Homo sapiens) = PLCG2-NC (Homo sapiens) (UniProt P16885)
Chain of PLCG2-NC (Homo sapiens) (P16885 527-740): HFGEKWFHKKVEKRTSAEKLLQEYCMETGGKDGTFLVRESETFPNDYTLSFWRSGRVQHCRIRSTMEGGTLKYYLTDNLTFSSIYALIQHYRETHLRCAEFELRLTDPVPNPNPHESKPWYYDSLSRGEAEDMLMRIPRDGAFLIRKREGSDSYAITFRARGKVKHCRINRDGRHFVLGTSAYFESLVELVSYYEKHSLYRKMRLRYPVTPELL

PIK3R2-N (Homo sapiens) [18] = target: PIK3R2-N (Homo sapiens) (UniProt O00459); remark: listed apart in the source
LYN (Homo sapiens) = LYN (Homo sapiens) (UniProt P07948)
Chain of LYN (Homo sapiens) (P07948 124-231): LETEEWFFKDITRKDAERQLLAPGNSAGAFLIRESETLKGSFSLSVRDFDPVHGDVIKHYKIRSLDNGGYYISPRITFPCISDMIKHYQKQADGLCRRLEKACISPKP

TENC1 (Homo sapiens) [19] = target: TENC1 (Homo sapiens) (UniProt Q63HR2)
Chain of TENC1 (Homo sapiens) (Q63HR2 1135-1252): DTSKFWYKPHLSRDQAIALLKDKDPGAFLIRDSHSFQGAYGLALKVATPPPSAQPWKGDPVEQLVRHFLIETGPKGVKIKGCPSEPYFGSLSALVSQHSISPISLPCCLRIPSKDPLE

TENC1 (Homo sapiens) [20] = target: TENC1 (Homo sapiens) (UniProt Q63HR2); remark: listed apart in the source
ITK (Homo sapiens) [21] = target: ITK (Homo sapiens) (UniProt Q08881)
Chain of ITK (Homo sapiens) (Q08881 234-343): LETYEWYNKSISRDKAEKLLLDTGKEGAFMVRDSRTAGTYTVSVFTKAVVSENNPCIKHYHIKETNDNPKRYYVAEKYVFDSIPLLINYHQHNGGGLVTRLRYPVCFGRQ

PIK3R3-N (Homo sapiens) [22] = target: PIK3R3-N (Homo sapiens) (UniProt Q92569); remark: listed apart in the source
YES1 (Homo sapiens) = YES1 (Homo sapiens) (UniProt P07947)
Chain of YES1 (Homo sapiens) (P07947 153-260): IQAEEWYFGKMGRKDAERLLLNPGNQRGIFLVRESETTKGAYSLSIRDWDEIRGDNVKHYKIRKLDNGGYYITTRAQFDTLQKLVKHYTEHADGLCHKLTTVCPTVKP

PIK3R1-C (Homo sapiens) = PIK3R1-C (Homo sapiens) (UniProt P27986)
Chain of PIK3R1-C (Homo sapiens) (P27986 328-723): as the sequence (P27986 328-723) above

ITK (Homo sapiens) [23] = target: ITK (Homo sapiens) (UniProt Q08881); remark: listed apart in the source
SHB (Homo sapiens) = SHB (Homo sapiens) (UniProt Q15464)
Chain of SHB (Homo sapiens) (Q15464 405-509): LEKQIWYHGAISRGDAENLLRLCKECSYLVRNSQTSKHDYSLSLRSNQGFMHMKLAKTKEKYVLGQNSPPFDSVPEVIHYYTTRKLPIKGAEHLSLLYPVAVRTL

SYK-C (Homo sapiens) = SYK-C (Homo sapiens) (UniProt P43405)
PIK3R3-N (Homo sapiens) [24] = target: PIK3R3-N (Homo sapiens) (UniProt Q92569); remark: listed apart in the source
PIK3R3-C (Homo sapiens) = PIK3R3-C (Homo sapiens) (UniProt Q92569)
PIK3R2-N (Homo sapiens) [25] = target: PIK3R2-N (Homo sapiens) (UniProt O00459); remark: listed apart in the source
PIK3R3-NC (Homo sapiens) [26] = target: PIK3R3-NC (Homo sapiens) (UniProt Q92569); remark: listed apart in the source
PIK3R1-NC (Homo sapiens) [27] = target: PIK3R1-NC (Homo sapiens) (UniProt P27986); remark: listed apart in the source
PIK3R3-NC (Homo sapiens) [28] = target: PIK3R3-NC (Homo sapiens) (UniProt Q92569); remark: listed apart in the source
SHF (Homo sapiens) = SHF (Homo sapiens) (UniProt Q7M4L6)
Chain of SHF (Homo sapiens) (Q7M4L6 318-423): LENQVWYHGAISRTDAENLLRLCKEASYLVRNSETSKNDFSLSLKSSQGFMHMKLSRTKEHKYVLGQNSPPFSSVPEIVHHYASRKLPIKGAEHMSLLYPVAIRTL

PIK3R1-NC (Homo sapiens) [29] = target: PIK3R1-NC (Homo sapiens) (UniProt P27986); remark: listed apart in the source
PIK3R1-N (Homo sapiens) [30] = target: PIK3R1-N (Homo sapiens) (UniProt P27986); remark: listed apart in the source
PIK3R2-NC (Homo sapiens) [31] = target: PIK3R2-NC (Homo sapiens) (UniProt O00459); remark: listed apart in the source
SHC1-PTB (Homo sapiens) = SHC1-PTB (Homo sapiens) (UniProt P29353)
Chain of SHC1-PTB (Homo sapiens) (P29353 483-583): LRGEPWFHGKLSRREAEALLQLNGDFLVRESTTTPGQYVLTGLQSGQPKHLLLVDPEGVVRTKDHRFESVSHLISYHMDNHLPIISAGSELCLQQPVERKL

ABL2 (Homo sapiens) [32] = target: ABL2 (Homo sapiens) (UniProt P42684); remark: listed apart in the source
ABL2 (Homo sapiens) [33] = target: ABL2 (Homo sapiens) (UniProt P42684); remark: listed apart in the source
PIK3R3-N (Homo sapiens) [34] = target: PIK3R3-N (Homo sapiens) (UniProt Q92569); remark: listed apart in the source
PIK3R2-N (Homo sapiens) [35] = target: PIK3R2-N (Homo sapiens) (UniProt O00459); remark: listed apart in the source

Chain of PIK3R1-N (Homo sapiens) (P27986 328-723): as the sequence (P27986 328-723) above
Chain of RASA1-N (Homo sapiens) (P20936 176-446): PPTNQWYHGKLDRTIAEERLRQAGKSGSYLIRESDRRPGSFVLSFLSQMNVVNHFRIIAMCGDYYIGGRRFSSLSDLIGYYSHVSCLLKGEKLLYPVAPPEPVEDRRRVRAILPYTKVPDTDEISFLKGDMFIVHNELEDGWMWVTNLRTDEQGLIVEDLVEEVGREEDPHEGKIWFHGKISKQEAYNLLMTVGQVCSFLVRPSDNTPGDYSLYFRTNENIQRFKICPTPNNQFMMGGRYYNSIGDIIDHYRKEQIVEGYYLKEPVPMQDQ

## …pYEYMNRRR
PIK3R3-NC (Homo sapiens) [1]
  apparent Kd (screen): 0.256 µM
RASA1-N (Homo sapiens) [2]
  apparent Kd (screen): 0.929 µM
PIK3R1-N (Homo sapiens) [3]
  apparent Kd (screen): 0.347 µM
PIK3R1-NC (Homo sapiens) [4]
  apparent Kd (screen): 0.254 µM
GRB7 (Homo sapiens) [5]
  apparent Kd (screen): 0.099 µM
SYK-NC (Homo sapiens) [6]
  apparent Kd (screen): 0.894 µM
GRB7 (Homo sapiens) [7]
  apparent Kd (screen): 0.125 µM
PIK3R2-NC (Homo sapiens) [8]
  apparent Kd (screen): 0.448 µM
PIK3R1-N (Homo sapiens) [9]
  apparent Kd (screen): 0.674 µM
RASA1-N (Homo sapiens) [10]
  apparent Kd (screen): 0.516 µM
BLK (Homo sapiens)
  apparent Kd (screen): 0.068 µM
PIK3R1-NC (Homo sapiens) [11]
  apparent Kd (screen): 0.499 µM
PIK3R3-N (Homo sapiens) [12]
  apparent Kd (screen): 0.281 µM
SYK-NC (Homo sapiens) [13]
  apparent Kd (screen): 1.26 µM
ABL2 (Homo sapiens) [14]
  apparent Kd (screen): 1.11 µM
FGR (Homo sapiens)
  apparent Kd (screen): 0.709 µM
PIK3R2-N (Homo sapiens) [15]
  apparent Kd (screen): 0.239 µM
PIK3R3-NC (Homo sapiens) [16]
  apparent Kd (screen): 0.499 µM
ABL1 (Homo sapiens)
  apparent Kd (screen): 1.43 µM
PIK3R2-NC (Homo sapiens) [17]
  apparent Kd (screen): 0.257 µM
SRC (Homo sapiens)
  apparent Kd (screen): 0.866 µM
PLCG2-NC (Homo sapiens)
  apparent Kd (screen): 0.614 µM
PIK3R2-N (Homo sapiens) [18]
  apparent Kd (screen): 0.143 µM
LYN (Homo sapiens)
  apparent Kd (screen): 1.07 µM
TENC1 (Homo sapiens) [19]
  apparent Kd (screen): 1.8 µM
TENC1 (Homo sapiens) [20]
  apparent Kd (screen): 1.63 µM
ITK (Homo sapiens) [21]
  apparent Kd (screen): 0.155 µM
PIK3R3-N (Homo sapiens) [22]
  apparent Kd (screen): 0.201 µM
YES1 (Homo sapiens)
  apparent Kd (screen): 0.125 µM

## …pYMPMNQGN
PIK3R1-C (Homo sapiens)
  apparent Kd (screen): 0.999 µM
ITK (Homo sapiens) [23]
  apparent Kd (screen): 1.67 µM
SHB (Homo sapiens)
  apparent Kd (screen): 1.37 µM
SYK-C (Homo sapiens)
  apparent Kd (screen): 1.18 µM
PIK3R3-N (Homo sapiens) [24]
  apparent Kd (screen): 0.999 µM
PIK3R3-C (Homo sapiens)
  apparent Kd (screen): 0.109 µM
PIK3R2-N (Homo sapiens) [25]
  apparent Kd (screen): 0.893 µM
PIK3R3-NC (Homo sapiens) [26]
  apparent Kd (screen): 0.492 µM
PIK3R1-NC (Homo sapiens) [27]
  apparent Kd (screen): 0.105 µM
PIK3R3-NC (Homo sapiens) [28]
  apparent Kd (screen): 0.05 µM
SHF (Homo sapiens)
  apparent Kd (screen): 1.23 µM
PIK3R1-NC (Homo sapiens) [29]
  apparent Kd (screen): 0.92 µM
PIK3R1-N (Homo sapiens) [30]
  apparent Kd (screen): 0.566 µM
PIK3R2-NC (Homo sapiens) [31]
  apparent Kd (screen): 0.088 µM
SHC1-PTB (Homo sapiens)
  apparent Kd (screen): 2 µM
ABL2 (Homo sapiens) [32]
  apparent Kd (screen): 0.167 µM
ABL2 (Homo sapiens) [33]
  apparent Kd (screen): 0.331 µM
PIK3R3-N (Homo sapiens) [34]
  apparent Kd (screen): 1.32 µM
PIK3R2-N (Homo sapiens) [35]
  apparent Kd (screen): 0.999 µM
